IntAct's records for PubMed 18957540

Molecular target: ntrk2_rat Ntrk2 (UniProt Q63604)
Sequence (Q63604 whole entry): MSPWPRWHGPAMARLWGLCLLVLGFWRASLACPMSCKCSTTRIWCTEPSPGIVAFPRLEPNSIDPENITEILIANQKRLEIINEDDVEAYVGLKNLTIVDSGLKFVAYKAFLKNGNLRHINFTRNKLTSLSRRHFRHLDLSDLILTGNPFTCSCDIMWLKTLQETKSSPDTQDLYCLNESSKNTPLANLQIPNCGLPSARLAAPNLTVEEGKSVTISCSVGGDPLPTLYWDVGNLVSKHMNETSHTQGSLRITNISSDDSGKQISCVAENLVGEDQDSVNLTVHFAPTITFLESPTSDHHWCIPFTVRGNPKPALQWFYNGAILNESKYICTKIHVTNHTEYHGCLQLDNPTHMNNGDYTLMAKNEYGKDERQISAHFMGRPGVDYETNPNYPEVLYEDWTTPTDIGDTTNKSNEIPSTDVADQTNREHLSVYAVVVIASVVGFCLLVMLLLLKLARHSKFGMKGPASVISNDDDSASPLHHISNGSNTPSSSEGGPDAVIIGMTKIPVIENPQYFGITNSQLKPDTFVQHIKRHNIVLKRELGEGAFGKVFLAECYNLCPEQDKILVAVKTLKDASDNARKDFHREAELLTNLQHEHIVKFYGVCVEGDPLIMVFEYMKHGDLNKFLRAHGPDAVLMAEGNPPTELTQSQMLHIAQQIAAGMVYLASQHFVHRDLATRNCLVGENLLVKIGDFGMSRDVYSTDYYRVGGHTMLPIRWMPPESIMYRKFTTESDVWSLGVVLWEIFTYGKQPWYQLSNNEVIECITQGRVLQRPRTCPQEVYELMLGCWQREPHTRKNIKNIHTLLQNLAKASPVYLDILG

effect of a mutation on the interaction: decreasing interaction strength
Substance: Protein farnesyltransferase/geranylgeranyltransferase type-1 subunit alpha (Rattus norvegicus (Rat)) (from UniProt Q04631) Y166A
